# Test results reported in US9957297B2, “Template-fixed peptidomimetics as inhibitors of FPR1” (POLYPHOR AG, priority 2011, dated 2018).
# Bridges are numbered along the chain shown (N, C = ends). [ ]: non-standard residue; d: D form. dTic = O=C(O)[C@H]1Cc2ccccc2CN1; hSer = N[C@@H](CCO)C(=O)O; Orn = NCCC[C@H](N)C(=O)O; Dab = NCC[C@H](N)C(=O)O
# T1: Formyl-Peptide Receptor 1 (UniProt P21462 1-350, limits assumed)
# T1 sequence (looked up): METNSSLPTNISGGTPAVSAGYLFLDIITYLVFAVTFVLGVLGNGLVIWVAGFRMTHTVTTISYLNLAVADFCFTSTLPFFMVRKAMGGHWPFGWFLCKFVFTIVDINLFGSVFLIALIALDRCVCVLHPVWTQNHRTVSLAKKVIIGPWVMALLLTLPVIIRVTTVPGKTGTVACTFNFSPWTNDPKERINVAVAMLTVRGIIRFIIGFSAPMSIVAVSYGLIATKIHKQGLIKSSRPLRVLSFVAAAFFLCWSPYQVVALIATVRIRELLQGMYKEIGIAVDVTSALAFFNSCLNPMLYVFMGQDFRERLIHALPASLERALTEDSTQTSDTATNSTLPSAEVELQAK
# Biological target: T1, Formyl-Peptide Receptor 1
# Experiment: cell-based or functional assay
row,Binder,β-Arrestin IC50
1,cyclo(YHKCHG[dP]WTICYE[hSer][dP]P) (disulfide 4-11; SMILES CC[C@H](C)[C@@H]1NC(=O)[C@H]([C@@H](C)O)NC(=O)[C@H](Cc2c[nH]c3ccccc23)NC(=O)[C@H]2CCCN2C(=O)CNC(=O)[C@H](Cc2c[nH]cn2)NC(=O)[C@@H]2CSSC[C@H](NC1=O)C(=O)N[C@@H](Cc1ccc(O)cc1)C(=O)N[C@@H](CCC(=O)O)C(=O)N[C@@H](CCO)C(=O)N1CCC[C@@H]1C(=O)N1CCC[C@H]1C(=O)N[C@@H](Cc1ccc(O)cc1)C(=O)N[C@@H](Cc1c[nH]cn1)C(=O)N[C@@H](CCCCN)C(=O)N2) [cyclo(-Tyr-His-Lys-Cys-His-Gly-^DPro-Trp-Thr-Ile-Cys-Tyr-Glu-Hse-^DPro-Pro-)],24 nM
2,cyclo(YHKCHG[dP]WTICYEE[dP]P) (disulfide 4-11; SMILES CC[C@H](C)[C@@H]1NC(=O)[C@H]([C@@H](C)O)NC(=O)[C@H](Cc2c[nH]c3ccccc23)NC(=O)[C@H]2CCCN2C(=O)CNC(=O)[C@H](Cc2c[nH]cn2)NC(=O)[C@@H]2CSSC[C@H](NC1=O)C(=O)N[C@@H](Cc1ccc(O)cc1)C(=O)N[C@@H](CCC(=O)O)C(=O)N[C@@H](CCC(=O)O)C(=O)N1CCC[C@@H]1C(=O)N1CCC[C@H]1C(=O)N[C@@H](Cc1ccc(O)cc1)C(=O)N[C@@H](Cc1c[nH]cn1)C(=O)N[C@@H](CCCCN)C(=O)N2) [cyclo(-Tyr-His-Lys-Cys-His-Gly-^DPro-Trp-Thr-Ile-Cys-Tyr-Glu-Glu-^DPro-Pro-)],57 nM
3,cyclo(YHKCHG[dP]WTICYET[dP]P) (disulfide 4-11; SMILES CC[C@H](C)[C@@H]1NC(=O)[C@H]([C@@H](C)O)NC(=O)[C@H](Cc2c[nH]c3ccccc23)NC(=O)[C@H]2CCCN2C(=O)CNC(=O)[C@H](Cc2c[nH]cn2)NC(=O)[C@@H]2CSSC[C@H](NC1=O)C(=O)N[C@@H](Cc1ccc(O)cc1)C(=O)N[C@@H](CCC(=O)O)C(=O)N[C@@H]([C@@H](C)O)C(=O)N1CCC[C@@H]1C(=O)N1CCC[C@H]1C(=O)N[C@@H](Cc1ccc(O)cc1)C(=O)N[C@@H](Cc1c[nH]cn1)C(=O)N[C@@H](CCCCN)C(=O)N2) [cyclo(-Tyr-His-Lys-Cys-His-Gly-^DPro-Trp-Thr-Ile-Cys-Tyr-Glu-Thr-^DPro-Pro-)],197 nM
4,cyclo(YHKCHG[dP]WTICYEH[dP]P) (disulfide 4-11; SMILES CC[C@H](C)[C@@H]1NC(=O)[C@H]([C@@H](C)O)NC(=O)[C@H](Cc2c[nH]c3ccccc23)NC(=O)[C@H]2CCCN2C(=O)CNC(=O)[C@H](Cc2c[nH]cn2)NC(=O)[C@@H]2CSSC[C@H](NC1=O)C(=O)N[C@@H](Cc1ccc(O)cc1)C(=O)N[C@@H](CCC(=O)O)C(=O)N[C@@H](Cc1c[nH]cn1)C(=O)N1CCC[C@@H]1C(=O)N1CCC[C@H]1C(=O)N[C@@H](Cc1ccc(O)cc1)C(=O)N[C@@H](Cc1c[nH]cn1)C(=O)N[C@@H](CCCCN)C(=O)N2) [cyclo(-Tyr-His-Lys-Cys-His-Gly-^DPro-Trp-Thr-Ile-Cys-Tyr-Glu-His-^DPro-Pro-)],73 nM
5,cyclo(YHKCHG[dTic]WTICYEK[dP]P) (disulfide 4-11; SMILES CC[C@H](C)[C@@H]1NC(=O)[C@H]([C@@H](C)O)NC(=O)[C@H](Cc2c[nH]c3ccccc23)NC(=O)[C@H]2Cc3ccccc3CN2C(=O)CNC(=O)[C@H](Cc2c[nH]cn2)NC(=O)[C@@H]2CSSC[C@H](NC1=O)C(=O)N[C@@H](Cc1ccc(O)cc1)C(=O)N[C@@H](CCC(=O)O)C(=O)N[C@@H](CCCCN)C(=O)N1CCC[C@@H]1C(=O)N1CCC[C@H]1C(=O)N[C@@H](Cc1ccc(O)cc1)C(=O)N[C@@H](Cc1c[nH]cn1)C(=O)N[C@@H](CCCCN)C(=O)N2) [cyclo(-Tyr-His-Lys-Cys-His-Gly-^DTic-Trp-Thr-Ile-Cys-Tyr-Glu-Lys-^DPro-Pro-)],21 nM

# More lines, now with the values ahead:
row,β-Arrestin IC50,Binder
1,16 nM,cyclo(YHKCHG[dP]WTICYEW[dP]P) (disulfide 4-11; SMILES CC[C@H](C)[C@@H]1NC(=O)[C@H]([C@@H](C)O)NC(=O)[C@H](Cc2c[nH]c3ccccc23)NC(=O)[C@H]2CCCN2C(=O)CNC(=O)[C@H](Cc2c[nH]cn2)NC(=O)[C@@H]2CSSC[C@H](NC1=O)C(=O)N[C@@H](Cc1ccc(O)cc1)C(=O)N[C@@H](CCC(=O)O)C(=O)N[C@@H](Cc1c[nH]c3ccccc13)C(=O)N1CCC[C@@H]1C(=O)N1CCC[C@H]1C(=O)N[C@@H](Cc1ccc(O)cc1)C(=O)N[C@@H](Cc1c[nH]cn1)C(=O)N[C@@H](CCCCN)C(=O)N2) [cyclo(-Tyr-His-Lys-Cys-His-Gly-^DPro-Trp-Thr-Ile-Cys-Tyr-Glu-Trp-^DPro-Pro-)]
2,44 nM,cyclo(YHKCHG[dP]WTICYEK[dP]P) (disulfide 4-11) [cyclo(-Tyr-His-Lys-Cys-His-Gly-^DPro-Trp-Thr-Ile-Cys-Tyr-Glu-Lys-^DPro-Pro-)]
3,124 nM,cyclo(YHKCHG[dP]WTICYEK[dA]E) (disulfide 4-11; SMILES CC[C@H](C)[C@@H]1NC(=O)[C@H]([C@@H](C)O)NC(=O)[C@H](Cc2c[nH]c3ccccc23)NC(=O)[C@H]2CCCN2C(=O)CNC(=O)[C@H](Cc2c[nH]cn2)NC(=O)[C@@H]2CSSC[C@H](NC1=O)C(=O)N[C@@H](Cc1ccc(O)cc1)C(=O)N[C@@H](CCC(=O)O)C(=O)N[C@@H](CCCCN)C(=O)N[C@H](C)C(=O)N[C@@H](CCC(=O)O)C(=O)N[C@@H](Cc1ccc(O)cc1)C(=O)N[C@@H](Cc1c[nH]cn1)C(=O)N[C@@H](CCCCN)C(=O)N2) [cyclo(-Tyr-His-Lys-Cys-His-Gly-^DPro-Trp-Thr-Ile-Cys-Tyr-Glu-Lys-^DAla-Glu-)]
4,15 nM,cyclo(YHKCHG[dP]WTICYWK[dP]P) (disulfide 4-11; SMILES CC[C@H](C)[C@@H]1NC(=O)[C@H]([C@@H](C)O)NC(=O)[C@H](Cc2c[nH]c3ccccc23)NC(=O)[C@H]2CCCN2C(=O)CNC(=O)[C@H](Cc2c[nH]cn2)NC(=O)[C@@H]2CSSC[C@H](NC1=O)C(=O)N[C@@H](Cc1ccc(O)cc1)C(=O)N[C@@H](Cc1c[nH]c3ccccc13)C(=O)N[C@@H](CCCCN)C(=O)N1CCC[C@@H]1C(=O)N1CCC[C@H]1C(=O)N[C@@H](Cc1ccc(O)cc1)C(=O)N[C@@H](Cc1c[nH]cn1)C(=O)N[C@@H](CCCCN)C(=O)N2) [cyclo(-Tyr-His-Lys-Cys-His-Gly-^DPro-Trp-Thr-Ile-Cys-Tyr-Trp-Lys-^DPro-Pro-)]
5,82 nM,cyclo(YHKCHG[dP]WTICYE[Dab][dP]P) (disulfide 4-11; SMILES CC[C@H](C)[C@@H]1NC(=O)[C@H]([C@@H](C)O)NC(=O)[C@H](Cc2c[nH]c3ccccc23)NC(=O)[C@H]2CCCN2C(=O)CNC(=O)[C@H](Cc2c[nH]cn2)NC(=O)[C@@H]2CSSC[C@H](NC1=O)C(=O)N[C@@H](Cc1ccc(O)cc1)C(=O)N[C@@H](CCC(=O)O)C(=O)N[C@@H](CCN)C(=O)N1CCC[C@@H]1C(=O)N1CCC[C@H]1C(=O)N[C@@H](Cc1ccc(O)cc1)C(=O)N[C@@H](Cc1c[nH]cn1)C(=O)N[C@@H](CCCCN)C(=O)N2) [cyclo(-Tyr-His-Lys-Cys-His-Gly-^DPro-Trp-Thr-Ile-Cys-Tyr-Glu-Dab-^DPro-Pro-)]
6,313 nM,cyclo(YH[Orn]CHG[dP]WTICYEK[dP]P) (disulfide 4-11) [cyclo(-Tyr-His-Orn-Cys-His-Gly-^DPro-Trp-Thr-Ile-Cys-Tyr-Glu-Lys-^DPro-Pro-)]
7,250 nM,cyclo(YHKCHG[dP]WTICYEG[dP]P) (disulfide 4-11; SMILES CC[C@H](C)[C@@H]1NC(=O)[C@H]([C@@H](C)O)NC(=O)[C@H](Cc2c[nH]c3ccccc23)NC(=O)[C@H]2CCCN2C(=O)CNC(=O)[C@H](Cc2c[nH]cn2)NC(=O)[C@@H]2CSSC[C@H](NC1=O)C(=O)N[C@@H](Cc1ccc(O)cc1)C(=O)N[C@@H](CCC(=O)O)C(=O)NCC(=O)N1CCC[C@@H]1C(=O)N1CCC[C@H]1C(=O)N[C@@H](Cc1ccc(O)cc1)C(=O)N[C@@H](Cc1c[nH]cn1)C(=O)N[C@@H](CCCCN)C(=O)N2) [cyclo(-Tyr-His-Lys-Cys-His-Gly-^DPro-Trp-Thr-Ile-Cys-Tyr-Glu-Gly-^DPro-Pro-)]
